Laboratory results as given in US11111484B2, “Streptococcus bacteriophage lysins for detection and treatment of gram positive bacteria” (priority 2011, dated 2021).
“Also recorded” adds a separate entry of the source.

Assays:
[1] = test system: S. suis strain 7711; assay: ΔPlySs1 growth inhibition in BHI broth; format: cell-based, Streptococcus suis; settings: overnight, 96-well plate
Protocol: The optical density of each sample was measured continuously overnight in 96-well plate format. Overall, bacterial growth was delayed in a dose-dependent manner. However, for enzyme-concentrations that were sufficient to induce lysis in buffered solutions (130 and 50 μg/ml), the effect was quite minimal here. […] For all of the treated samples, one will note that the final optical densities are actually higher than that of the untreated sample. This is an artifact of the accumulation of aggregated bacterial debris that occurred in the presence of lytic enzyme.
(§1) Truncated PlySs1(ΔPlySs1) lysin activity was determined against different cell types. Given the above experiments, the following optimal buffering conditions were employed for all further in vitro experiments with ΔPlySs1: 20 mM phosphate buffer, pH=7.8, 2 mM EDTA. A range of lysin concentrations, from 6.5-130 μg/ml, were introduced to live S. suis cells in this buffer. Three strains were considered particularly relevant: 7711, the serotype 7 strain that encodes PlySs1; S735, the serotype 2 reference strain; and 7997, a highly virulent serotype 9 strain. In terms of bacterial viability, only the highest PlySs1-concentration (130 μg/ml) led to a >90% decrease in CFUs for 7711, S735, and 7997 after 1 hr treatment (TABLE 2). The lysin was also tested against actively-dividing cells in broth culture (strain 7711) (FIG. 20).

[2] = test system: S. suis 10 (ST2); assay: ΔPlySs1 OD600 lysis, 1 hr, optimal buffering conditions; format: cell-based, Streptococcus suis
Protocol: as §1
(§2) ΔPlySs1 was further tested against a panel of 19 other S. suis strains of diverse serotypes, as well as other species of Gram-positive bacteria. The same lysin concentrations were used as above. For each dosage, the observed lysis values after 1 hr are listed in TABLE 3 and TABLE 4, and the information is summarized graphically in FIG. 21.

[3] = test system: S. suis ST10; assay: as above; format: cell-based, Streptococcus suis
Protocol: as §1, §2

[4] = test system: S. suis ST13; assay: as above; format: cell-based, Streptococcus suis
Protocol: as §1, §2

[5] = test system: S. suis ST14; assay: as above; format: cell-based, Streptococcus suis
Protocol: as §1, §2

[6] = test system: S. suis ST1; assay: as above; format: cell-based, Streptococcus suis
Protocol: as §1, §2

[7] = test system: S. suis ST3; assay: as above; format: cell-based, Streptococcus suis
Protocol: as §1, §2

[8] = test system: S. suis ST4; assay: as above; format: cell-based, Streptococcus suis
Protocol: as §1, §2

[9] = test system: S. suis ST6; assay: as above; format: cell-based, Streptococcus suis
Protocol: as §1, §2

[10] = test system: S. suis ST7; assay: as above; format: cell-based, Streptococcus suis
Protocol: as §1, §2

[11] = test system: S. pneumoniae R36; assay: as above; format: cell-based, Streptococcus pneumoniae
[12] = test system: S. equi 9528; assay: as above; format: cell-based, Streptococcus equi
[13] = test system: L. monocytogenes HER1084; assay: as above; format: cell-based, Listeria monocytogenes
[14] = test system: S. sanguinis 10556; assay: as above; format: cell-based, Streptococcus sanguinis
[15] = test system: S. salivarius 9222; assay: as above; format: cell-based
[16] = test system: S. simulans TNK3; assay: as above; format: cell-based, Staphylococcus simulans
[17] = test system: Listeria strains; assay: PlySs2 lytic activity against species and strains (FIG. 25); format: cell-based; settings: 32 μg/ml, 60 minutes
Protocol: (§3) FIG. 25 provides PlySs2 activity against different species and strains. Log-phase cultures were exposed to 32 μg/ml PlySs2 for 60 minutes in phosphate buffer. The final OD600 of the treated samples were divided by the final OD600 of the untreated samples to generate the normalized values above. Multiple Staphylococci (including, but not limited to: MRSA, MSSA, and VISA), Streptococci, Listeria, Enterococci, and Bacilli were tested for susceptibility to PlySs2 activity. Escherichia and Pseudomonas were tested as Gram-negative controls.

[18] = test system: Pseudomonas; assay: as above; format: cell-based; settings: Gram-negative control
Protocol: as §3

B1: ΔPlySs1: truncated PlySs1 lysin, SEQ ID NO:2, N-terminal 254 amino acids: only N-terminal enzymatic and central binding domains (protein, listed as Streptococcus suis)
chain: MTINLETSIRWMSDRVGKVSYSMDYRNGPNSYDCSSAVYYALMAGGAISAGWAVNTEYMHDWLIRNGYVLVAENKPFNAQRHDVCILGKRGYSSGAGGHVVIFVDNVNVIHCNYARNGISIDNYNQVHRGMYYYLYRPANQPSISNKSLDQLVKETLAGVHGNGDTRKASLGSQYEAVMAVINGKASASEKSDEELAREVLAGKHGAGEDRKRSLGPRYEPVQAKVNELLKAKEKPSETAKNEPQTVQFKEDGDL
MIC / growth inhibition [1]: could not inhibit S. suis growth outright; also recorded: a MIC could not be assigned | 1-hour treated/untreated OD600-ratio ([2]; 6.5 μg/ml): 0.29 | 1-hour treated/untreated OD600-ratio ([2]; 13 μg/ml): 0.18 | 1-hour treated/untreated OD600-ratio ([2]; 30 μg/ml): 0.10 | 1-hour treated/untreated OD600-ratio ([2]; 65 μg/ml): 0.05 | 1-hour treated/untreated OD600-ratio ([2]; 130 μg/ml): 0.02 | 1-hour treated/untreated OD600-ratio ([3]; 6.5 μg/ml): 0.85 | 1-hour treated/untreated OD600-ratio ([3]; 13 μg/ml): 0.72 | 1-hour treated/untreated OD600-ratio ([3]; 30 μg/ml): 0.55 | 1-hour treated/untreated OD600-ratio ([3]; 65 μg/ml): 0.44 | 1-hour treated/untreated OD600-ratio ([3]; 130 μg/ml): 0.28 | 1-hour treated/untreated OD600-ratio ([4]; 6.5 μg/ml): 0.32 | 1-hour treated/untreated OD600-ratio ([4]; 13 μg/ml): 0.17 | 1-hour treated/untreated OD600-ratio ([4]; 30 μg/ml): 0.04 | 1-hour treated/untreated OD600-ratio ([4]; 65 μg/ml): 0.02 | 1-hour treated/untreated OD600-ratio ([4]; 130 μg/ml): 0.02 | 1-hour treated/untreated OD600-ratio ([5]; 6.5 μg/ml): 0.79 | 1-hour treated/untreated OD600-ratio ([5]; 13 μg/ml): 0.57 | 1-hour treated/untreated OD600-ratio ([5]; 30 μg/ml): 0.33 | 1-hour treated/untreated OD600-ratio ([5]; 65 μg/ml): 0.15 | 1-hour treated/untreated OD600-ratio ([5]; 130 μg/ml): 0.06 | 1-hour treated/untreated OD600-ratio ([6]; 6.5 μg/ml): 0.80 | 1-hour treated/untreated OD600-ratio ([6]; 13 μg/ml): 0.34 | 1-hour treated/untreated OD600-ratio ([6]; 30 μg/ml): 0.36 | 1-hour treated/untreated OD600-ratio ([6]; 65 μg/ml): 0.19 | 1-hour treated/untreated OD600-ratio ([6]; 130 μg/ml): 0.06 | 1-hour treated/untreated OD600-ratio ([7]; 6.5 μg/ml): 0.81 | 1-hour treated/untreated OD600-ratio ([7]; 13 μg/ml): 0.71 | 1-hour treated/untreated OD600-ratio ([7]; 30 μg/ml): 0.48 | 1-hour treated/untreated OD600-ratio ([7]; 65 μg/ml): 0.32 | 1-hour treated/untreated OD600-ratio ([7]; 130 μg/ml): 0.16 | 1-hour treated/untreated OD600-ratio ([8]; 6.5 μg/ml): 0.63 | 1-hour treated/untreated OD600-ratio ([8]; 13 μg/ml): 0.47 | 1-hour treated/untreated OD600-ratio ([8]; 30 μg/ml): 0.32 | 1-hour treated/untreated OD600-ratio ([8]; 65 μg/ml): 0.22 | 1-hour treated/untreated OD600-ratio ([8]; 130 μg/ml): 0.12 | 1-hour treated/untreated OD600-ratio ([9]; 6.5 μg/ml): 0.76 | 1-hour treated/untreated OD600-ratio ([9]; 13 μg/ml): 0.56 | 1-hour treated/untreated OD600-ratio ([9]; 30 μg/ml): 0.40 | 1-hour treated/untreated OD600-ratio ([9]; 65 μg/ml): 0.21 | 1-hour treated/untreated OD600-ratio ([9]; 130 μg/ml): 0.06 | 1-hour treated/untreated OD600-ratio ([10]; 6.5 μg/ml): 0.65 | 1-hour treated/untreated OD600-ratio ([10]; 13 μg/ml): 0.47 | 1-hour treated/untreated OD600-ratio ([10]; 30 μg/ml): 0.34 | 1-hour treated/untreated OD600-ratio ([10]; 65 μg/ml): 0.22 | 1-hour treated/untreated OD600-ratio ([10]; 130 μg/ml): 0.11 | lysis value after 1 hr (treated/untreated OD600 ratio) ([11]; 6.5 μg/ml): 0.25 | lysis value after 1 hr (treated/untreated OD600 ratio) ([11]; 13 μg/ml): 0.22 | lysis value after 1 hr (treated/untreated OD600 ratio) ([11]; 30 μg/ml): 0.14 | lysis value after 1 hr (treated/untreated OD600 ratio) ([11]; 65 μg/ml): 0.16 | lysis value after 1 hr (treated/untreated OD600 ratio) ([11]; 130 μg/ml): 0.12 | lysis value after 1 hr (treated/untreated OD600 ratio) ([12]; 6.5 μg/ml): 0.66 | lysis value after 1 hr (treated/untreated OD600 ratio) ([12]; 13 μg/ml): 0.45 | lysis value after 1 hr (treated/untreated OD600 ratio) ([12]; 30 μg/ml): 0.25 | lysis value after 1 hr (treated/untreated OD600 ratio) ([12]; 65 μg/ml): 0.19 | lysis value after 1 hr (treated/untreated OD600 ratio) ([12]; 130 μg/ml): 0.16 | lysis value after 1 hr (treated/untreated OD600 ratio) ([13]; 6.5 μg/ml): 0.63 | lysis value after 1 hr (treated/untreated OD600 ratio) ([13]; 13 μg/ml): 0.52 | lysis value after 1 hr (treated/untreated OD600 ratio) ([13]; 30 μg/ml): 0.26 | lysis value after 1 hr (treated/untreated OD600 ratio) ([13]; 65 μg/ml): 0.14 | lysis value after 1 hr (treated/untreated OD600 ratio) ([13]; 130 μg/ml): 0.04 | lysis value after 1 hr (treated/untreated OD600 ratio) ([14]; 6.5 μg/ml): 0.48 | lysis value after 1 hr (treated/untreated OD600 ratio) ([14]; 13 μg/ml): 0.44 | lysis value after 1 hr (treated/untreated OD600 ratio) ([14]; 30 μg/ml): 0.28 | lysis value after 1 hr (treated/untreated OD600 ratio) ([14]; 65 μg/ml): 0.21 | lysis value after 1 hr (treated/untreated OD600 ratio) ([14]; 130 μg/ml): 0.11 | lysis value after 1 hr (treated/untreated OD600 ratio) ([15]; 6.5 μg/ml): 0.80 | lysis value after 1 hr (treated/untreated OD600 ratio) ([15]; 13 μg/ml): 0.76 | lysis value after 1 hr (treated/untreated OD600 ratio) ([15]; 30 μg/ml): 0.56 | lysis value after 1 hr (treated/untreated OD600 ratio) ([15]; 65 μg/ml): 0.53 | lysis value after 1 hr (treated/untreated OD600 ratio) ([15]; 130 μg/ml): 0.37 | lysis value after 1 hr (treated/untreated OD600 ratio) ([16]; 6.5 μg/ml): 0.96 | lysis value after 1 hr (treated/untreated OD600 ratio) ([16]; 13 μg/ml): 1.00 | lysis value after 1 hr (treated/untreated OD600 ratio) ([16]; 30 μg/ml): 1.00 | lysis value after 1 hr (treated/untreated OD600 ratio) ([16]; 65 μg/ml): 1.00 | lysis value after 1 hr (treated/untreated OD600 ratio) ([16]; 130 μg/ml): 0.96

B2: PlySs2: Streptococcus suis prophage lysin, SEQ ID NO:3; N-terminal CHAP domain and C-terminal SH3-type 5 domain (protein, listed as Streptococcus suis)
chain: MTTVNEALNNVRAQVGSGVSVGNGECYALASWYERMISPDATVGLGAGVGWVSGAIGDTISAKNIGSSYNWQANGWTVSTSGPFKAGQIVTLGATPGNPYGHVVIVEAVDGDRLTILEQNYGGKRYPVRNYYSAASYRQQVVHYITPPGTVAQSAPNLAGSRSYRETGTMTVTVDALNVRRAPNTSGEIVAVYKRGESFDYDTVIIDVNGYVWVSYIGGSGKRNYVATGATKDGKRFGNAWGTFK
strains lysed of strains tested [17]: 2 of 6 | lytic activity [18]: did not display activity
